According to the nanobody polyreactivity screen of Harvey et al. (2022):

Assay: yeast display, Sf9 membrane polyspecificity reagent, FACS + sequencing; frameworks hold sequencing errors
Summary of the method: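 Using colony PCR, genes from sorted yeast display clones were amplified, then sequenced on MiSeq at 2 × 250 and filtered by CDR length. The clones had been stained with 10% biotinylated, detergent-solubilized Sf9 membrane reagent for 1 hour at 4 °C and sorted by FACS into low and high (top ~1%) gates on anti-HA and streptavidin fluorescence. Polyreactivity labels come from the gate of origin.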

Q: With “QVQLVESGGGLVQAGGSLRLSCAASGLTFSWYAMGWYRPAPGKERELVAAISSGGSTYYADSVKGRFTISRDNAKNTVYLQMNSLKPEDTAVYYCNAESYYYGFFWSGFRYGYWGQGTQVTVSS” as the sequence, how does the “polyreactivity (PSR sort gate)” value read?
A: high polyreactivity

Q: Which “polyreactivity (PSR sort gate)” value does the source give for “QVQLVESGGGLVQAGGSLRLSCAASGFSFGIYAMGWYRQAPGKERELYADSVKGRFTISRDNAKNTVYLQMNSLKPEDTAVYYCAADYWYGAGLPHGTEFDYWGQGTQVTVSS” here?
A: low polyreactivity

Q: For “QVQLVESGGGLVQAGGSLRLSCAASGIIFGGYDMGWYRQAPGKERELVAGIRSGGSTYYADSVKGRFTISRDNAKNTVYLQMNSLKPEDTAVYYCAADSYTEVDYWGQGSQVTVSS”, which “polyreactivity (PSR sort gate)” value is on record?
A: low polyreactivity

Q: Which “polyreactivity (PSR sort gate)” value does the source give for “QVQLVESGGGLVQAGGSLRLSCAASGITFGDYAMGWYRQAPGKERELVAAISKRGGSTYYAESVKGRFTISRDNAKNTVYLQMNSRNPEDTAVYYCAADYYSKAYYYWGQGTQVTVSS” here?
A: high polyreactivity

Q: Which “polyreactivity (PSR sort gate)” value does the source give for “QVQLVESGGGLVQAGGSLRLSCAASGRTFYEYTIGWYRQAPGKERELVAAITWSVGSTYYADSVKGRFTISRDIAKNTVYLQMNSLKPEETAVYDCAAYYYVWYYYWGQGTQVTVSS” here?
A: low polyreactivity

Q: Which “polyreactivity (PSR sort gate)” value does the source give for “QVQLVESGGGLVQAGGSLRLSCAASGSIFGYYAMGWYRQAPGKERELVAAITRGARTYYADSVKGRFTISRDNAKNTVYLQMNSLKPEDTAFYYCNRVPYYEGGNGSWGQGTQVTVSS” here?
A: high polyreactivity

Q: With “QVQLVESGGGLVQAGGSLRLSCAASGLTFNWNAMGWYRQAPGKERELVAAIRSSGGSTYADSVKGRFTISRDNAKNTVYLQMNSLKPEDTAVYYCAARSRVPPAGPRYDYWGQGTQVTVSS” as the sequence, how does the “polyreactivity (PSR sort gate)” value read?
A: high polyreactivity

Q: For “QVQLVESGGGLVQAGGSLRLSCAASGGIFAHYVMGWYRQAPGKERELVAAISASGGSTYYADSVKGRFTISRDNAKNTVYLQMNSLKPEDTAVYYCAAYYLAWYAYRYKTVGSAMDHWGQGTQVTVSS”, which “polyreactivity (PSR sort gate)” value is on record?
A: low polyreactivity

Q: With “QVQLVESGGGLVQAGGSLRLSCAASGFIFRYNAMGWYRQRPGKERELVAVITSGGRTYYADSVKGRFTISRDNAKNTVYLQMNSLKPEDTAFYYCNADSRHRRNYDYWGQGTQVTVSS” as the sequence, how does the “polyreactivity (PSR sort gate)” value read?
A: high polyreactivity

Q: Which “polyreactivity (PSR sort gate)” value does the source give for “QVQLVESGGGLLQAGGSLRLSCAASGIIIVGYAMGWYRQAPGKERELVAAISRSSGSTYYADSVKGRFTISRDNAKNTVYLQMNSLKPEDTAVYYCARYNQYYSTEDYWGQGPQVTVSS” here?
A: high polyreactivity

Q: For “QVQLVDSGGGLVQAGGSLRLSCAASGSIFPSYAIGWYRQAPGKERELVATIGRGGTTNYADSVKGRFTISRDNAKNTVYLQMNSLKPEDTSVYYCNAERIWRYKYGYDYWGQGTQVTVSS”, which “polyreactivity (PSR sort gate)” value is on record?
A: high polyreactivity

Q: For “QVQLVESGGGLVQAGGSLRLSCAASGFTLANYAMGWYRQAPGKERELVAAIDYSGGGTYYADSVKGRFTISRDNAKNTVYLQMNSLKPEDTAVYYCAARRWSYYSAKYDYWGQGTQVTVSS”, which “polyreactivity (PSR sort gate)” value is on record?
A: low polyreactivity

Q: For “QVQLVESGGGLVQAGGSLRLSCAASGSTFRGNAMGWYRQAPGKERELVAAISESGTDTYYADSVKGRFTISRDNAKKTVYLLMNSLKPEDTAVYYCAKDYSGTYYAQYNYWGQGTQVTVSS”, which “polyreactivity (PSR sort gate)” value is on record?
A: low polyreactivity

Q: Which “polyreactivity (PSR sort gate)” value does the source give for “QVQLVESRGGLVQAGGSLRLSCAASGSTFRTNTMGWSRQAPGKEREVVADISWSGGSTDYADSVKGRFTISRDNAKNTVYLQMNSLKPEDTAVYFCAKDGAFWTYYSWYDYWGQGTQVTVSS” here?
A: low polyreactivity

Q: Which “polyreactivity (PSR sort gate)” value does the source give for “QVQLVESGGGLVQAGGSLRLSCAASGSIFWSNAMGWYRQAPGKERELVAAITWSGGSTYADSVKGRFTISRDNAKNTVYLQMNSLKPEDTAVYYCAAERAILSSDKQSLWRFDYWGQGTQVTVSS” here?
A: low polyreactivity

Q: With “QVQLVESGGGLVQAGGSLRLSCAASGSIFTFNAMGWYRQAPGKERELVATISRRTGSTYYADSVKGRFTISRDNAKNTVYLQMNSLKPEDTAVYYCAARRRVYWYNHYNYWGQGTQVTVSS” as the sequence, how does the “polyreactivity (PSR sort gate)” value read?
A: high polyreactivity

Q: With “QVQVVESGGGLVQAGGSLRLSCAASGYIINQYTMGWYRQAPGKERELVADNSSGGSTTYADSVKGRFTISRDNAKNTVYLQMNSLKTEHTAVYYCNAEYDSGSPTAYDWEYDYWGHGTQVTVSS” as the sequence, how does the “polyreactivity (PSR sort gate)” value read?
A: high polyreactivity

Q: For “QVHLVESGGGLVQAGGSLRLTCAASGSIFTVYALGWYRQAPGKERELVAAITRNGGRTYYADSVKGRFTISRDNAKNTVYLQMNSLIPEDTAGYYCAAPGLYSRLDYWGQGTQVTVSS”, which “polyreactivity (PSR sort gate)” value is on record?
A: high polyreactivity

Q: With “QVQLVESGGGLVQAGGSLRLSCAASGRIFAGYPMGWYRQAPGKERELVATFTRGGSTNYADSVKRPFTISRDNAKNSVYLQMNSLKPEDTAVYYCNAAIRRHGGYAHEYWGQGTQVTVSS” as the sequence, how does the “polyreactivity (PSR sort gate)” value read?
A: low polyreactivity

Q: With “QVQLVESGGGIVQAGGSLRLSCAASGSIFGSYAMGWYRQAPGKERELVAAITRSGGRTYYADSVKGRFTISRDNAKNTVYLQMNSLKPEDTAVYYCNAKLKLPSGGDYWGQGTQVTVSS” as the sequence, how does the “polyreactivity (PSR sort gate)” value read?
A: high polyreactivity

Q: For “QVQLVESGGGLVQAGGSLRLSCAASGFIFWGNAMGWYRQAPGKERELVAAINYSGGRTYYADSVKGRFTISRDNAKNTVYLQMNSLKAEATAVNYCAAKYRYHVSGYDYWGQATQVTVSS”, which “polyreactivity (PSR sort gate)” value is on record?
A: high polyreactivity

Q: For “QVQLQESGGGLVQAGGSLRLSCAASGSIFVSVTMGWYRQAPGKERELVASIGRGSTTNHADSVKGRFTISRDNATNIFYLLMNSLNPEDTAVYYCAALESYGKYHGYWGQGTQVTVSS”, which “polyreactivity (PSR sort gate)” value is on record?
A: low polyreactivity

Q: With “QVQLVESVGGLVQAGGSLRLSCAASGGIFDTYVMGWYRQAPGKERELVAAISSSGSTTYADSVKGRFTISRDNAKNTVYLQMNSLKPEDTAVYYCNADYSTIWRYDYWGQGTQVTVSS” as the sequence, how does the “polyreactivity (PSR sort gate)” value read?
A: low polyreactivity

Q: Which “polyreactivity (PSR sort gate)” value does the source give for “QVQLVESGGGLVQAGGSLRLSCAASGSTFGVNAMGWYRQAPGKERELVASISSGGGTYYADSVKGRFTISRDNAKNTVYLQMNSLKPEDTAVYYCAAVYYWYDSYAGYDYWGQGTQVTVSS” here?
A: low polyreactivity

Q: With “QVQLVESGGGLVQAGGSLRLSCAASGRIFDNYGMGWYRQAPGKERELVAAISSGGGTYYADSVKGRFTISRDNAKNTVYLQMNSLKPEDTAVYYCAKRRVYDRSFGRYDYWGQGTQVTVSS” as the sequence, how does the “polyreactivity (PSR sort gate)” value read?
A: low polyreactivity

Q: Which “polyreactivity (PSR sort gate)” value does the source give for “QVQRVESGGGLVQAGGSLRLSCAASGFIFDGYAMGWYRQAPGKERELVAAIDSGGDRTYYADSVKGRFTISRDNAKNTVYLLMNSLKPEDTAVYYCAADSSDPTGYEYGGQGTQVTVSS” here?
A: low polyreactivity

Q: Which “polyreactivity (PSR sort gate)” value does the source give for “QVQLVESGGGLVQAGGSLRLSCAASGRTFYRYAMGWYRQAPWKERELVAAITKRGSGTYYADSVKGRFTISRDNAKNTVYLQMNSLKPEDTAVYYCATDGYIRPSRPAPTQPTFNYWGQGSQVTVSS” here?
A: high polyreactivity

Q: For “QVQLVESGGGLVQAGGSLRLSCAASGSILDFNAMGWYRQAPGKERELVAAISDSSGSTFYAVSVKGRFTISRDNAKNTVYLLMISLKPEDTAVYYCAARLGFYPYGYTSWYTVYFWGQGTQVTVSS”, which “polyreactivity (PSR sort gate)” value is on record?
A: low polyreactivity

Q: Which “polyreactivity (PSR sort gate)” value does the source give for “QVQLVESGGGLVQAGGSLRLSCAASGFTFVSYAMGGYRQAPGKERELVASISSGGSTYYADSVKGRFTISRDNAKNTVYLQMNSLKPEDTAVYYCAAYSRWGRWFTIYNYWGQGTQVTVSS” here?
A: high polyreactivity

Q: With “QVQLVESGGGLVQAGGSLRLSCAASGSIFESYAMGWYRQAPGKERELVAAITKRGGSTYYADSVKGRFTISRDNAKYTVYLQMNSLKPEDTAVYYCNARWPGIGPIYDYWGQGSQVTVSS” as the sequence, how does the “polyreactivity (PSR sort gate)” value read?
A: low polyreactivity

Q: For “QVQLVESGGGLVQAGGSLRLSCSASGSTFRVYAMGWYRQAPGKERELVAAISWSGGRTYYADSVKGRFTISRDNAKNTVYLQMNSLKPEDTAVYYCAADTYGRYDYWGQGTQVTVSS”, which “polyreactivity (PSR sort gate)” value is on record?
A: high polyreactivity

Q: Which “polyreactivity (PSR sort gate)” value does the source give for “QVQLVESGGGLVQAGGSLRLSCAASGSTFHVYAMGWYRQAPGKEREFVASITTRGGSTYYADSVKGRFTISRDNAKNTVYLQMNSLKPEDTAVYYCNATPYPGGNGRWRFWKSYGYWGQGTQVTVSS” here?
A: high polyreactivity

Q: For “QVQLVESGGGLVQAGGSLRLSCAASGRTFVPYAMGWYRQAPGKERELVAAISSSGGSTYYADSVKGRFTISRDNAKNTVYLQMNSLKPDDTAVYYCAAKSRKGGEYWGQGTQVTVSS”, which “polyreactivity (PSR sort gate)” value is on record?
A: high polyreactivity

Q: Which “polyreactivity (PSR sort gate)” value does the source give for “QVQLVESGGGLVQAGGSLRLSCAASGRIFKLYAMGLYRQAPGKERELVAASSKSGGSTYYADSVKGRFKISRDNAKNTVYLQMNSLKPEDSAVYYCNADPVRSGLDYWGQGTQVTVSS” here?
A: high polyreactivity

Q: With “QVQLVESGGGLVQAGGSLRLSCAASGLIFVGYAMGWYRQSPGKERELVAAITSGGSTKYADSVKGRVTISRDNAKNTDYLQMNSLKPEDTAVYYCADSGCRNWWSARNYYWGQGTQVTVSS” as the sequence, how does the “polyreactivity (PSR sort gate)” value read?
A: low polyreactivity

Q: With “QVQLVESGGGLVQAGGSLRLSCAASGSIFYLYAMGWYRQAPGKEREFVAAITSSSGSTHYADSVKGRFTISRDNAKNTVYYQMNSLKPEDTAVYYCAKDYGPWTYDYWGQGTQVTVSS” as the sequence, how does the “polyreactivity (PSR sort gate)” value read?
A: low polyreactivity

Q: For “QVQLVESGGGLVQAGGSLRLSCAASGRIFYWNAMGWYRQAHGKERELVAAISWSGGSTYYADSVKGRFTISRDNAKNTVYLQMNSLKPEDTAVYYCAADGGRRTYYVKYDYWGQGTQVTASS”, which “polyreactivity (PSR sort gate)” value is on record?
A: low polyreactivity

Q: For “QVQLVESGGGLVQAGGSLRLSCAASGRTFGNYAMGWYRQAPGKERELVADITRRGGSTSYADSVKGRFTISRDNAKNTVYLQMNSLKPEDTAVYYCNADSYLPAIRYDYWGQGTQVTVSS”, which “polyreactivity (PSR sort gate)” value is on record?
A: low polyreactivity

Q: For “QVQLVESGGGLVQAGGSLRLSCASSGRTFGTYAMGSYRQAPGKDSELVAAITSGTRTYYADCVKGRFTISRDNAKNTVYLQMNSQKPEDTSVYYCAAGLVYRWSSTPRRLYYYWGQGTQVTVSS”, which “polyreactivity (PSR sort gate)” value is on record?
A: high polyreactivity

Q: For “QVQLVESGGGLVQAGGSLRLSCAASGFTFLSYAMGWYRQAPGKERELVAAISRSGGSTYYADSVKGRFTISRDNAKNTVYLQMNSLKPEDTAVYYCAARSAFRNQFSRNNYWGQGTQVTVSS”, which “polyreactivity (PSR sort gate)” value is on record?
A: high polyreactivity

Q: Which “polyreactivity (PSR sort gate)” value does the source give for “QVQLQESGGRLVQSCGTLRLSCAASGTITVLYKIGRFRQAPGKEREFVASINYGTSTYYADSVKGRFTVSRDSAKNTVYLQMNSLKPEDTAVYYCAAAYRWQDVYRYWVQGTQVTVSS” here?
A: low polyreactivity

Q: For “QVQLVESAGGLVQAGGSLRLSCAASGFTFYYYTMGWYRQAPGKETELVAAITWRGGSTNYADSVKGRFTISRDNAKNTVYLQMNSLKPEDTAVYYCAAVSYWFWPGMDYWGQGTQVTVSS”, which “polyreactivity (PSR sort gate)” value is on record?
A: low polyreactivity

Q: With “QVQLVESGGGLVQAGGSLRLSCAASGRTFRQYAMGWSRQAPGKERELVAGITASGGSTSYADSVKGRFTISRDNAKNTVYLQMNSLKPEDTAVYYCAKLSYLYRYDYWGQGTQVTVSS” as the sequence, how does the “polyreactivity (PSR sort gate)” value read?
A: high polyreactivity
